The target of data set [1] is RpL8 209-228 peptide (…).
Data set [2] concerns the target RpL27a31-50 peptide (…).

Data on 2 proteins can be found in patent publication US20140248636.

B1: NO66 (A116-N641), N-terminally hexa-His tagged, recombinant (protein)
chain: QTPSARLVPASAPPARLVEVPAAPVRVVETSALLCTAQHLAAVQSSGAPATASGPQVDNTGGEPAWDSPLRRVLAELNRIPSSRRRAARLFEWLIAPMPPDHFYRRLWEREAVLVRRQDHTYYQGLFSTADLDSMLRNEEVQFGQHLDAARYINGRRETLNPPGRALPAAAWSLYQAGCSLRLLCPQAFSTTVWQFLAVLQEQFGSMAGSNVYLTPPNSQGFAPHYDDIEAFVLQLEGRKLWRVYRPRVPTEELALTSSPNFSQDDLGEPVLQTVLEPGDLLYFPRGFIHQAECQDGVHSLHLTLSTYQRNTWGDFLEAILPLAVQAAMEENVEFRRGLPRDFMDYMGAQHSDSKDPRRTAFMEKVRVLVARLGHFAPVDAVADQRAKDFIHDSLPPVLTDRERALSVYGLPIRWEAGEPVNVGAQLTTETEVHMLQDGIARLVGEGGHLFLYYTVENSRVYHLEEPKCLEIYPQQADAMELLLGSYPEFVRVGDLPCDSVEDQLSLATTLYDKGLLLTKMPLALN
For B1, in data set [1], the “extent of peptide hydroxylation by MALDI-TOF” value is recorded as “hydroxylated to ˜85% as tested by MALDI-TOF analyses” and the “mass increase of the peptide by MALDI-TOF (hydroxylation)” value is listed as “displayed 16 Da increase in mass”.

B2: Mina53 (A26-V465), N-terminally hexa-His tagged, recombinant (protein)
chain: AAGGPSALNFDSPSSLFESLISPIKTETFFKEFWEQKPLLIQRDDPALATYYGSLFKLTDLKSLCSRGMYYGRDVNVCRCVNGKKKVLNKDGKAHFLQLRKDFDQKRATIQFHQPQRFKDELWRIQEKLECYFGSLVGSNVYITPAGSQGLPPHYDDVEVFILQLEGEKHWRLYHPTVPLAREYSVEAEERIGRPVHEFMLKPGDLLYFPRGTIHQADTPAGLAHSTHVTISTYQNNSWGDFLLDTISGLVFDTAKEDVELRTGIPRQLLLQVESTTVATRRLSGFLRTLADRLEGTKELLSSDMKKDFIMHRLPPYSAGDGAELSTPGGKLPRLDSVVRLQFKDHIVLTVLPDQDQSDEAQEKMVYIYHSLKNSRETHMMGNEEETEFHGLRFPLSHLDALKQIWNSPAISVKDLKLTTDEEKESLVLSLWTECLIQVV
B2: in data set [2], the “extent of peptide hydroxylation by MALDI-TOF” value was “hydroxylated to ˜95% as tested by MALDI-TOF analyses” and the “mass increase of the peptide by MALDI-TOF (hydroxylation)” value was “displayed a 16 Da increase in mass”.
